Measured values published in patent US20240294624A1, “ANTI-ERYTHROPOIETIN ANTIBODY” (ANDREMACON S.R.L., priority 2021, published 2024).
Values belong to the molecule of their own block, whether it stands above or below them.

Columns and labels:
[1] = system: primary TMZ-resistant glioblastoma stem cells (GSC-R); assay: MTT viability of chemo-resistant cells; details: Homo sapiens, Glioblastoma stem cell, 96 h, read-out: percent survival / viability
Description: In detail, GSCs and U87 parental cell line, which are sensitive to TMZ, were first maintained in low doses of TMZ (25 μM) and then successively exposed for two months to incremental doses of 25 μM of TMZ each time (up to 500 μM). After the killing of a majority of the cells, the surviving cells were maintained until a normal rate of growth were obtained. […] Cell viability was assessed by 3-(4,5-Dimethylthiazol-2-yl)-2,5-Diphenyl-tetrazoliumBromide (MTT) assay, as a function of redox potential (FIG. 24). Cells (5×10^3/well) were seeded and cultured in 96-well plate for 24 h in Basal Medium (BM). Then, culture media were replaced with fresh media containing the specific treatments, or in BM as a control condition (CTR).
Test was performed in triplicate after 96 h of treatment, by replacing culture media with 100 μL of fresh media added with 10 μL of MTT 5 mg/ml in D-PBS. After 4 h of incubation, media were removed and cells were lysed with 100 μL of 2-propanol/formic acid (95:5, by vol) for 10 min. Then, absorbance was read at 570 nm in microplate reader.

EphB4 = biological target: T1, EphB4 (Homo sapiens, UniProt P54760); details: Epo for EphB4; cited from earlier work
T1 sequence (P54760 16-987): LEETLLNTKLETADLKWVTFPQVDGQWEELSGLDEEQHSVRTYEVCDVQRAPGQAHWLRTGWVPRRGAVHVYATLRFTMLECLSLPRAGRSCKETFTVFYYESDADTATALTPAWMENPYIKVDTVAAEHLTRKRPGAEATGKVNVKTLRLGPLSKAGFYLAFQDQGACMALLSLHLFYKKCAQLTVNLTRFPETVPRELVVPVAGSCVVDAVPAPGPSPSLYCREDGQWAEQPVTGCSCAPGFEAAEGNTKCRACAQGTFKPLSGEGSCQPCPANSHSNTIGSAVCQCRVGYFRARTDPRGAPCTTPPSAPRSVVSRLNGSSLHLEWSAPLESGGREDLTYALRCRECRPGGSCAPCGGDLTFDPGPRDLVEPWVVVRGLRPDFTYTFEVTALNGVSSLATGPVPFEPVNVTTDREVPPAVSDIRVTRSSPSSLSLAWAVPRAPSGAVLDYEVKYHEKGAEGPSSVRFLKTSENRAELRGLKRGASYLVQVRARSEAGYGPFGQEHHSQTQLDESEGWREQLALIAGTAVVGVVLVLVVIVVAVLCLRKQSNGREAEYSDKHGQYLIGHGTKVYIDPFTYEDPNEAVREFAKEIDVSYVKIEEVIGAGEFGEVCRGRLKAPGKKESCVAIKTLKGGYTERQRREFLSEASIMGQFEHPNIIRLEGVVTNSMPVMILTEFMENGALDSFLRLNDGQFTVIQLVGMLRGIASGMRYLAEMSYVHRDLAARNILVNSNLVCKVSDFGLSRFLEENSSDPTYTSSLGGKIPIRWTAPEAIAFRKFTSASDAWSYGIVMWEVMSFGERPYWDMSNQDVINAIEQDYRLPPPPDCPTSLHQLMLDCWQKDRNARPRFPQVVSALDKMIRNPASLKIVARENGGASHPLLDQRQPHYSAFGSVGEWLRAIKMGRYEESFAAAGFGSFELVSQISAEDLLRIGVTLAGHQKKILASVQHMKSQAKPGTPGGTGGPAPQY

murine EPO [2] = biological target: T2, murine EPO (murine, UniProt P07321 27-192, limits assumed); assay: SPR (ProteOn XPR36), anti-EPO (C4) immobilized by amine coupling, EPO as analyte; murine EPO
T2 construct: also called mEPO; m-EPO
T2 sequence (looked up): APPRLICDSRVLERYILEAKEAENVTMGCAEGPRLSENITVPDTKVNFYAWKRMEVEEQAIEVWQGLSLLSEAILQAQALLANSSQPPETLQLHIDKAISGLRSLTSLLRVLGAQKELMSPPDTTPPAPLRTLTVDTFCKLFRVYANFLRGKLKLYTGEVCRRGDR

murine EPO [3] = biological target: T2, murine EPO; assay: SPR (ProteOn XPR36), anti-EPO (C4) immobilized by amine coupling, EPO as analyte; murine EPO; fitted value

Molecule: Cn1nnc2c(C(N)=O)ncn2c1=O [TMZ, Temozolomide]
viability at 100 µM [1]: ~93%

Molecule: Epo: 30.4 kDa glycoprotein, main erythropoietic hormone
Kd (EphB4): 0.88 µM

koff (murine EPO [2]): 0.000669 s⁻¹ | kon (murine EPO [2]): 663 M⁻¹ s⁻¹ | Kd (murine EPO [3]): 1.01 µM
B1: anti-EPO (C4) monoclonal antibody (antibody, V domains shown)
VH: EVKLQESGGGLVQPGGSLKLSCAASGFTFSTYTMSWVRQTPEKRLEWVAYISNGGDRTYYPDTVKGRFTISRDDAKNTLFLQMSSLKSEDTAMYYCARHNITTVPFTMDYWGQGTSVTVSS
VL: DIVLTQSPASLAVSLGQRATISCRASESVDYYGTGLMQWYQQRPGQPPKLLIYGASNVGSGVPARFSGSGSGTDFSLNIHPVEGDDIAMYFCQQTRKVPSTFGGGTKLEIK
notes: also called C4 antibody; anti-EPO (C4) mAB
